Results from doi:10.1101/2025.07.31.667833, “Coiled-coil-mediated phase separation of Spef1 for non-centrosomal microtubule organization and function” (bioRxiv, 2025).
Positions count from the first letter of the chain named. Names and notes keep the numbering of the source.

B1: full-length wild-type Spef1 (mouse) (natural protein, UniProt Q99JL1 1-234, looked up)
chain: MESSVDEEALHQLYLWVDNIPLSRPKRNLSRDFSDGVLVAELIKFYFPKMVEMHNYVPANSLQQKLSNWGHLNRKVLNKLNFSVPDDVMRKIAQCSPGVVELVLIPLRQRLEERQRRQKLGVGSLQELAPQDSSGYMDMGLPQKVRGEGAPALGEQLREGRPLASRPPGYNQALQGDPSFVLQIAEKEQELLASQETVQVLQMKVKRLEHLLQLKNVRIDDLSRRLQQAERKQR
notes: Spef1 (sperm flagellar protein 1, CLAMP), mouse, full length; also called WT; CLAMP; source: E. coli BL21(DE3), purified (Ni2+-Sepharose, size-exclusion chromatography)
B2: Spef1 K206A/R207A mutant (full-length) (natural protein, mouse, UniProt Q99JL1 1-234, looked up)
chain: B1 chain with K206A, R207A
notes: Spef1, mouse, full length, with K206A and R207A on the coiled-coil surface; also called KR; charge-changing mutant; source: E. coli BL21(DE3), purified (Ni2+-Sepharose, size-exclusion chromatography)
B3: Spef1 E186A/E188A/E190A mutant (full-length) (natural protein, mouse, UniProt Q99JL1 1-234, looked up)
chain: B1 chain with E186A, E188A, E190A
notes: Spef1, mouse, full length, with E186A, E188A and E190A on the coiled-coil surface; also called charge-changing mutant; source: E. coli BL21(DE3), purified (Ni2+-Sepharose, size-exclusion chromatography)

Biological target: the molecule itself
Experiment: SEC-MALS; ~1 mg/ml protein in 50 mM Tris-HCl pH 8.0, 500 mM NaCl, 1 mM EDTA, 1 mM DTT; WTC SEC column, 18-angle light scattering; oligomeric state (dimer or monomer)

Stoichiometry N, 2:
B1
B2
B3
